In the experiment the target is bacterially expressed beta18 (Drosophila). Put plainly: chymotrypsin protection.
Sequence of bacterially expressed beta18 (Drosophila) (Q00963 whole entry): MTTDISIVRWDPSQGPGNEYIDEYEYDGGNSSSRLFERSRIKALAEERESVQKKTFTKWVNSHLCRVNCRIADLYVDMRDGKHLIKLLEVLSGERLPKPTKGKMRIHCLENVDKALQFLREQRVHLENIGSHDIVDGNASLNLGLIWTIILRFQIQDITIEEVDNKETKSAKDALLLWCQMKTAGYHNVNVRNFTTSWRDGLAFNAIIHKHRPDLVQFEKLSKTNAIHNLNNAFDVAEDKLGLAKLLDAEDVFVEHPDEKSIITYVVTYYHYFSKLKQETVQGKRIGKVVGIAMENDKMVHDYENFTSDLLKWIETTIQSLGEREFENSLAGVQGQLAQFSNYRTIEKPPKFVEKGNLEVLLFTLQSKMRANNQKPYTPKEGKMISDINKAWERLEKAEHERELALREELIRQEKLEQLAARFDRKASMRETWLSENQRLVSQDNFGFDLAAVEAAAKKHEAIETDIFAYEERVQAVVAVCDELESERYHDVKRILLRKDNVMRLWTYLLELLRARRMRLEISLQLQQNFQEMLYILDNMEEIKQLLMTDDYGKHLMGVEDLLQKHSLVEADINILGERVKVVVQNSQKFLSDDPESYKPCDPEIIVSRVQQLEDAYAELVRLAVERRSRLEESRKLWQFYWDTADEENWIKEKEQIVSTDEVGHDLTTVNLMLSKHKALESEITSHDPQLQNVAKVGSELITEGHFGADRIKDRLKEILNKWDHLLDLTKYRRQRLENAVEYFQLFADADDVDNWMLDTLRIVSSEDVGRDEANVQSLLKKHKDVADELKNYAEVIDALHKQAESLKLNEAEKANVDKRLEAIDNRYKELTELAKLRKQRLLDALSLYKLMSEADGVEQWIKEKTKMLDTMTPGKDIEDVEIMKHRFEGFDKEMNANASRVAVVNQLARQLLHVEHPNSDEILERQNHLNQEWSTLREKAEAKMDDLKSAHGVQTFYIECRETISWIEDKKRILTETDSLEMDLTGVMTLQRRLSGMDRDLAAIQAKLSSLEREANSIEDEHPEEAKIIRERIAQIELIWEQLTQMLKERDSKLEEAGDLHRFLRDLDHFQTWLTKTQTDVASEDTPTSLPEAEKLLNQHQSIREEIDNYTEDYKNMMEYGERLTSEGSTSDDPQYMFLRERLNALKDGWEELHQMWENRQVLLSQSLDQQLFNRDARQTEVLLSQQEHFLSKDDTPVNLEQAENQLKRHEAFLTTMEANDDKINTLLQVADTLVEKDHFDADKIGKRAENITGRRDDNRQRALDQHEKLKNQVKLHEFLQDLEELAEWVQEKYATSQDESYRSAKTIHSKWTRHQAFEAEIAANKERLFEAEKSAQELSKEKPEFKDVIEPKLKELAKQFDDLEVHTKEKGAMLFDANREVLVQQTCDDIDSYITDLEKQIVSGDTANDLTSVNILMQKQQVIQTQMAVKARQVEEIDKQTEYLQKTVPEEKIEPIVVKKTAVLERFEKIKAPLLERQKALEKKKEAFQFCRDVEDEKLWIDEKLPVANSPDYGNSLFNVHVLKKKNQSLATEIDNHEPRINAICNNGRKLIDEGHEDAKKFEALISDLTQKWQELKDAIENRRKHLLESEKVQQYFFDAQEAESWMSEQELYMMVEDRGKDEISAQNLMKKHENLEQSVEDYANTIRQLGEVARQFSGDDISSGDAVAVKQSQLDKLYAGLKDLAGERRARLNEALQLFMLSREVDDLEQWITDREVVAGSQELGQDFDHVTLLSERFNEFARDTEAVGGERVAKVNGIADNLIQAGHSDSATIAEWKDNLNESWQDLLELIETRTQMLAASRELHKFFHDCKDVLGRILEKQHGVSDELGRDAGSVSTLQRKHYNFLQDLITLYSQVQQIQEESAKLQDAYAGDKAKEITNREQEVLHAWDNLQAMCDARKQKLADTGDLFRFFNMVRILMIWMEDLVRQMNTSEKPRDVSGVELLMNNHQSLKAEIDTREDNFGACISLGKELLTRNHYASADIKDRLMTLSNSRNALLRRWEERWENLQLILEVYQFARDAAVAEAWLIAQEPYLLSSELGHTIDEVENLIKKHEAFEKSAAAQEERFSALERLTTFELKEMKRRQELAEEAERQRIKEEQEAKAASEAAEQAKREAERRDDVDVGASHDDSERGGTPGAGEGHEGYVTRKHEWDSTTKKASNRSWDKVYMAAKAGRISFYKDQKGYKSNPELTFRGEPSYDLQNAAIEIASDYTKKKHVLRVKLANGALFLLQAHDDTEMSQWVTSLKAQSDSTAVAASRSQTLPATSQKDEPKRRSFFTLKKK

B1: bacterially expressed alpha0-1(R22S) (domain or fragment)
chain: MENFTPKEVKILETVEDIQERSEQVLSRYNDFKIETRQKREKLEDSRRFQYFKRDADELESWIHEKLQAASEESYRDPTNLQAKIQKHQAFEAEVSAHSNAIVSLDNTGQEMINQQHFASESIQVRLDELHKLWELLLSRLAEKGLKLQQ
With B1, the percent intact (chymotrypsin protection, beta18 present) stood at 61.2%.

Values taken from article PMC2120337.
